This note sets out measurements from article PMC5964235, “rbFOX1/MBNL1 competition for CCUG RNA repeats binding contributes to myotonic dystrophy type 1/type 2 differences”.

For one series, the target named is T1, GST-rbFOX1 (UniProt Q9NWB1).
T1 sequence: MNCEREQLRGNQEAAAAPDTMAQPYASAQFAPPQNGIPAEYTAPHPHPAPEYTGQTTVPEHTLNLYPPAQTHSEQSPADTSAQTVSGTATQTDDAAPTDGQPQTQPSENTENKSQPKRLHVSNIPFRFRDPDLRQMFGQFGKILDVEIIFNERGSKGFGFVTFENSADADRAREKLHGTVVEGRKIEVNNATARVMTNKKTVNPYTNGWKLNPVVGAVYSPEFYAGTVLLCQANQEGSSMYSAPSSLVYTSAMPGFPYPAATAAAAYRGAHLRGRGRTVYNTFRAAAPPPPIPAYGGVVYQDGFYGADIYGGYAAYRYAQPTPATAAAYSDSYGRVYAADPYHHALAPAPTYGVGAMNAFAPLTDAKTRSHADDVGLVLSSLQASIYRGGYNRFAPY
The experiment in a line: EMSA. The settings on record: apparent KD; EMSA: 50 mM Tris-HCl pH 7.0, 75 mM NaCl, 37.5 mM KCl, 0.75 mM MgCl2, 5.25 mM DTT, 0.1 mg/mL BSA, 0.1 mg/mL bulk tRNA, 0.4 U/uL RNAsin, 20 min on ice, 10 pM ….

Another series addresses T2, rbFOX1 RRM (UniProt Q9NWB1 117-193).
T2 sequence: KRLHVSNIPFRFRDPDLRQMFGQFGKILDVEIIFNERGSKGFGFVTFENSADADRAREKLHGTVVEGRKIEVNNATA
The experiment in a line: NMR; 15N-1H HSQC; EMSA: 50 mM Tris-HCl pH 7.0, 75 mM NaCl, 37.5 mM KCl, 0.75 mM MgCl2, 5.25 mM DTT, 0.1 mg/mL BSA, 0.1 mg/mL bulk tRNA, 0.4 U/uL RNAsin, 20 min on ice, 10 pM RNA; gel at 4 C. The settings on record: protein: recombinant.

In the case of “GGGAGACCCAAGCUGGCUAGCGUUUAAACUUAAGCUUCCUGCCUGCCUGCCUGCCUGCCUGCCUGCCUGCCUGCCUGCCUGCCUGCCUGCCUGCCUGCCUGCCUGCCUGCCUGCCUGCCUGCCUGCCUGCCUGCCUGCCUGCCUGCCUGCCUGCCUGCCUGCCUGCCUGCCUGCCUGCCUGCCUGCCUGCCUGCCUGCCUGCCUGCCUGCCUGCCUGCCUGCCUGCCUGCCUGCCUGCCUGCCUGCCUGCCUGCCUGCCUGCCUGCCUGCCUGCCUGCCUGCCUGCCUGCCUGCCUGCCUGCCUGCCUGCCUGCCUGCCUGCCUGCCUGCCUGCCUGCCUGCCUGCCUGCCUGCCUGCCUGCCUGCCUGCCUGCCUGCCUGCCUGCCUGCCUGCCUGCCUGCCUGCCUGCCUGCCUGCCUGCCUGCCUGCCUGCCUGG [(CCUG)100]”, the Kd with GST-rbFOX1 is 3.2 nM.
Still for that read-out and setting: the result for “GGGAGACCCAAGCUGGCUAGCGUUUAAACUUAAGCUUCCUGCCUGCCUGCCUGCCUGCCUGCCUGCCUGCCUGCCUGCCUGCCUGCCUGCCUGCCUGCCUGCCUGCCUGCCUGCCUGCCUGCCUGCCUGCCUGCCUGCCUGCCUGCCUGCCUGCCUGG [(CCUG)30]” reads 6.3 nM.
Still for that read-out and setting: in the case of “GGGAGACCCAAGCUGGCUAGCGUUUAAACUUAAGCUUCCUGCCUGCCUGCCUGCCUGCCUGCCUGCCUGCCUGCCUGG [(CCUG)10]” it was 9.7 nM.
With UGCAUGU (ssRNA) [UGCAUGU (NMR)], in the series with rbFOX1 RRM, the binding result is on record as “binds”.
Consider UGCCUGC (ssRNA) [UGCCUGC (NMR)], for which the binding result with rbFOX1 RRM is “binds”.
